Experiments:
Experiment in all cases: IEDB peptide-MHC binding, purified MHC/competitive/radioactivity; filed as Kd, often an IC50 or EC50 that approximates it; ≥ and ≤ were set here for values at or beyond the usual limits of such assays
[1] = biological target: HLA-A*68:01
[2] = biological target: HLA-A*31:01
[3] = biological target: HLA-A*03:01
[4] = biological target: HLA-A*33:01
[5] = biological target: HLA-A*11:01
[6] = biological target: HLA-A*02:06; conditions: source organism: Dengue virus 3 Martinique/1243/1999
[7] = biological target: HLA-A*02:03; conditions: source organism: Dengue virus 4 Dominica/814669/1981
[8] = source organism: Mammarenavirus whitewaterense
[9] = source organism: Vaccinia virus WR
[10] = source organism: SARS coronavirus Tor2
[11] = source organism: Lymphocytic choriomeningitis virus (strain Armstrong)
[12] = source organism: Vaccinia virus Copenhagen
[13] = source organism: Mammarenavirus brazilense
[14] = source organism: Mammarenavirus lassaense

PCMINDTHFL
Kd [1, 8]: ≥ 40100 nM
Kd [2, 8]: 11600 nM
Kd [3, 8]: ≥ 70000 nM
Kd [4, 8]: ≥ 48500 nM
Kd [5, 8]: ≥ 46800 nM

ASMGFKVTTR
Kd [1, 9]: 15.4 nM
Kd [2, 9]: 0.416 nM
Kd [3, 9]: 14 nM
Kd [4, 9]: 532 nM
Kd [5, 9]: 0.174 nM

EFLHYCNSY
Kd [1, 9]: ≥ 24600 nM
Kd [2, 9]: ≥ 37700 nM
Kd [3, 9]: ≥ 78000 nM
Kd [4, 9]: 6030 nM
Kd [5, 9]: ≥ 31600 nM

TQIFEVYWY
Kd [1, 9]: 733 nM
Kd [2, 9]: 3800 nM
Kd [3, 9]: 1850 nM
Kd [4, 9]: 10900 nM
Kd [5, 9]: 353 nM

SLNSMYTRLR
Kd [1, 9]: 81.2 nM
Kd [2, 9]: 0.291 nM
Kd [3, 9]: 47.2 nM
Kd [4, 9]: 0.997 nM
Kd [5, 9]: 1780 nM

QTSVNTVVR
Kd [1, 9]: 73.3 nM
Kd [2, 9]: 4010 nM
Kd [3, 9]: ≥ 63600 nM
Kd [4, 9]: 7260 nM
Kd [5, 9]: 923 nM

PSIFLIITK
Kd [1, 9]: 4130 nM
Kd [2, 9]: 9350 nM
Kd [3, 9]: 166 nM
Kd [4, 9]: 10900 nM
Kd [5, 9]: 36 nM

HTCMSECVR
Kd [1, 9]: 57.8 nM
Kd [2, 9]: 25.4 nM
Kd [3, 9]: 3200 nM
Kd [4, 9]: 324 nM
Kd [5, 9]: 67.3 nM

SQNPLAELK
Kd [1, 10]: ≥ 63100 nM
Kd [2, 10]: 3700 nM
Kd [3, 10]: ≥ 22700 nM
Kd [4, 10]: ≥ 48100 nM
Kd [5, 10]: 306 nM

LSDENYLLK
Kd [1, 9]: 13500 nM
Kd [2, 9]: 1500 nM
Kd [3, 9]: 591 nM
Kd [4, 9]: ≥ 66100 nM
Kd [5, 9]: 1.59 nM

AIVLEFFMMV
Kd [6]: 7.87 nM

GNFSWFPHK
Kd [1, 11]: 1830 nM
Kd [2, 11]: 1350 nM
Kd [3, 11]: 159 nM
Kd [4, 11]: 6310 nM
Kd [5, 11]: 80.2 nM

QSYKETVHK
Kd [1, 9]: 37.6 nM
Kd [2, 9]: 5550 nM
Kd [3, 9]: 21.7 nM
Kd [4, 9]: ≥ 77700 nM
Kd [5, 9]: 43.4 nM

VINAPIKEFK
Kd [1, 9]: 6.75 nM
Kd [2, 9]: 227 nM
Kd [3, 9]: 4.87 nM
Kd [4, 9]: 83.8 nM
Kd [5, 9]: 1.31 nM

FLLRHYYNK
Kd [1, 9]: 1340 nM
Kd [2, 9]: 76.4 nM
Kd [3, 9]: 7.31 nM
Kd [4, 9]: 2050 nM
Kd [5, 9]: 27.1 nM

SIENKHQRR
Kd [1, 9]: 627 nM
Kd [2, 9]: 165 nM
Kd [3, 9]: ≥ 23900 nM
Kd [4, 9]: 696 nM
Kd [5, 9]: 6370 nM

VTLAILTALR
Kd [1, 10]: 14.1 nM
Kd [2, 10]: 13.4 nM
Kd [3, 10]: 218 nM
Kd [4, 10]: 310 nM
Kd [5, 10]: 149 nM

SLENLDPDNK
Kd [1, 9]: 1360 nM
Kd [2, 9]: 17000 nM
Kd [3, 9]: 2920 nM
Kd [4, 9]: ≥ 22400 nM
Kd [5, 9]: 6.89 nM

PVYISQFSYK
Kd [1, 12]: 95.2 nM
Kd [2, 12]: 13.3 nM
Kd [3, 12]: 1.26 nM
Kd [4, 12]: 54 nM
Kd [5, 12]: 19.2 nM

SYQYLIIQNR
Kd [1, 11]: 1690 nM
Kd [2, 11]: 0.953 nM
Kd [3, 11]: 9780 nM
Kd [4, 11]: 54.3 nM
Kd [5, 11]: ≥ 69700 nM

IMLEGETKLY
Kd [1, 9]: 1010 nM
Kd [2, 9]: ≥ 55800 nM
Kd [3, 9]: 1610 nM
Kd [4, 9]: ≥ 41100 nM
Kd [5, 9]: 5110 nM

GIFVDTMSIY
Kd [1, 9]: 3380 nM
Kd [2, 9]: ≥ 70000 nM
Kd [3, 9]: 3790 nM
Kd [4, 9]: ≥ 28500 nM
Kd [5, 9]: 815 nM

NARGEDTQMR
Kd [1, 9]: 16.2 nM
Kd [2, 9]: 1770 nM
Kd [3, 9]: ≥ 41400 nM
Kd [4, 9]: 2120 nM
Kd [5, 9]: ≥ 69000 nM

VSMTYLYNK
Kd [1, 9]: 82.7 nM
Kd [2, 9]: 2.76 nM
Kd [3, 9]: 72.5 nM
Kd [4, 9]: 806 nM
Kd [5, 9]: 1.36 nM

FKVAFSKHYK
Kd [1, 13]: 582 nM
Kd [2, 13]: 48.3 nM
Kd [3, 13]: 279 nM
Kd [4, 13]: 3190 nM
Kd [5, 13]: 2140 nM

ASANLAATK
Kd [1, 10]: 78.3 nM
Kd [2, 10]: 1030 nM
Kd [3, 10]: 77.1 nM
Kd [4, 10]: ≥ 77700 nM
Kd [5, 10]: 14.4 nM

GLFCLLNRY
Kd [1, 10]: 16100 nM
Kd [2, 10]: 7160 nM
Kd [3, 10]: 839 nM
Kd [4, 10]: 13000 nM
Kd [5, 10]: 1340 nM

KVDNFTMGV
Kd [6]: 4.24 nM

LSCTKNTSHH
Kd [1, 14]: ≥ 43700 nM
Kd [2, 14]: ≥ 43100 nM
Kd [3, 14]: ≥ 70000 nM
Kd [4, 14]: ≥ 70000 nM
Kd [5, 14]: ≥ 69700 nM

GLTPEQKAY
Kd [1, 9]: 15000 nM
Kd [2, 9]: ≥ 77900 nM
Kd [3, 9]: ≥ 78000 nM
Kd [4, 9]: ≥ 77700 nM
Kd [5, 9]: ≥ 56300 nM

LSYIYSEIK
Kd [1, 9]: 252 nM
Kd [2, 9]: 8600 nM
Kd [3, 9]: 26 nM
Kd [4, 9]: 1590 nM
Kd [5, 9]: 27.3 nM

MLYQLLEAVY
Kd [1, 9]: 3350 nM
Kd [2, 9]: 10800 nM
Kd [3, 9]: 1460 nM
Kd [4, 9]: 15700 nM
Kd [5, 9]: 13700 nM

TQHGTILIKV
Kd [6]: 526 nM

AMHSALAGA
Kd [7]: 8.58 nM

— the Immune Epitope Database (IEDB)
